Data on nine molecules can be found in US20220143204A1.

Assay [1] deals with human IGF2R on cells (human) (UniProt P11717). In words: cell-based or functional assay.
In assay [2] the target is rat IGF2R on cells (rat). In words: cell-based or functional assay.
In assay [3] the target is recombinant human extracellular domain of IGF2R (human) (UniProt P11717). In words: titration ELISA on recombinant hIGF2R-ECD, direct read-out of the Alexa Fluor 647 conjugate (fluorescence intensity 700 nm), one-site specific binding fit (Examples 4.1, 6.1). Background: ELISA stands for enzyme-linked immunosorbent assay.
For assay [4] the target is unchanged. In words: titration ELISA of the Alexa Fluor 647 conjugate on recombinant hIGF2R-ECD, one-site specific binding fit.
Assay [5] has the same target. In words: binding assay on hIGF2R-ECD coated plates, detection with anti-VHH antibody.
For assay [6] the target is unchanged. In words: binding assay on plates coated with hIGF2R-ECD, three-fold VHH dilutions, bound VHH detected with anti-VHH antibody (Example 4.1); y axis OD415.
For assay [7] the target is unchanged. In words: titration ELISA on hIGF2R-ECD, direct read out at 647 nm, one-site specific binding fit.
For assay [8] the target is unchanged. In words: competition ELISA on human IGF2R ectodomain: 250 nM unlabelled 13E8 against 10 nM labelled 13F11 (competitor: 13F11-A647).

B1: 13E8-13F11 conjugated to IRD800CW (VHH, not shown: small tags and cut ends)
chain: EVQLVESGGGLVQAGGSLRLSCAASRSISPMGWYRQAPGKQRELVAIMPSSGPPIYADSVQGRFTISRDNAKNTVYLQMNSLKPEDTAVYYCNVGGGYWGQGTQVTVSSGGGGSGGGGSGGGGSEVQLVESGGRLVQPGDSLRLSCAASGRTFSDNAMGWFRQAPGKERRFVAGISWAGGSTYYSDSVKGRFTISRDNAKNTVYLQMNSLKPEDTAVYYCAAGLRAWVQRMPKDYNYWGQGTQVTVSS
modifications: IRD800CW by maleimide chemistry on the C-terminal free cysteine
As to B1, the endocytic rate constant, ke in assay [1] was 1.5 min⁻¹; in assay [2], 0.7 min⁻¹.

B2: 13E8-13F11 conjugated to Alexa Fluor 647 (VHH, not shown: small tags and cut ends)
chain: EVQLVESGGGLVQAGGSLRLSCAASRSISPMGWYRQAPGKQRELVAIMPSSGPPIYADSVQGRFTISRDNAKNTVYLQMNSLKPEDTAVYYCNVGGGYWGQGTQVTVSSGGGGSGGGGSGGGGSEVQLVESGGRLVQPGDSLRLSCAASGRTFSDNAMGWFRQAPGKERRFVAGISWAGGSTYYSDSVKGRFTISRDNAKNTVYLQMNSLKPEDTAVYYCAAGLRAWVQRMPKDYNYWGQGTQVTVSS
modifications: Alexa Fluor 647 by maleimide chemistry on the C-terminal free cysteine
One may read the Kd as the constant that tells how readily two partners part at equilibrium. Turning to B2, the Bmax in assay [3] was found to be 94.7. Besides, the Kd in assay [4] was found to be 2.5 nM.

B3: 13F11-13E8 conjugated to Alexa Fluor 647 (VHH, not shown: small tags and cut ends)
chain: EVQLVESGGRLVQPGDSLRLSCAASGRTFSDNAMGWFRQAPGKERRFVAGISWAGGSTYYSDSVKGRFTISRDNAKNTVYLQMNSLKPEDTAVYYCAAGLRAWVQRMPKDYNYWGQGTQVTVSSGGGGSGGGGSGGGGSEVQLVESGGGLVQAGGSLRLSCAASRSISPMGWYRQAPGKQRELVAIMPSSGPPIYADSVQGRFTISRDNAKNTVYLQMNSLKPEDTAVYYCNVGGGYWGQGTQVTVSS
modifications: Alexa Fluor 647 by maleimide chemistry on the C-terminal free cysteine
In the case of B3, the Bmax in assay [3] came out at 79.2. In addition, in assay [4], the Kd turned out to be 2.5 nM.

B4: 13F11 (VHH)
VHH: EVQLVESGGRLVQPGDSLRLSCAASGRTFSDNAMGWFRQAPGKERRFVAGISWAGGSTYYSDSVKGRFTISRDNAKNTVYLQMNSLKPEDTAVYYCAAGLRAWVQRMPKDYNYWGQGTQVTVSS
The EC50 (read off the curve) is the concentration at which the effect is half-maximal. As for B4, in assay [5], the Kd came to 0.23 nM. Moreover, the EC50 (read off the curve) in assay [6] came out at 0.4 nM.

B5: 13F11 conjugated to Alexa Fluor 647 (VHH, not shown: small tags and cut ends)
VHH: EVQLVESGGRLVQPGDSLRLSCAASGRTFSDNAMGWFRQAPGKERRFVAGISWAGGSTYYSDSVKGRFTISRDNAKNTVYLQMNSLKPEDTAVYYCAAGLRAWVQRMPKDYNYWGQGTQVTVSS
modifications: Alexa Fluor 647 by maleimide chemistry on the C-terminal free cysteine
For B5, the Bmax in assay [3] was 20.1. The Kd in assay [7] was 1 nM.

B6: 13C11 (VHH)
VHH: EVQLVESGGGLVQAGGSLRLSCAASGLTFSSYTMAWYRQAPGKEREVVAAISSGDSIYHEGSVQGRFIISRDNAKNTVYLQMNSLKAEDTAVYYCRANGPGTYWGQGTQVTVSS
For the molecule B6, the EC50 (read off the curve) in assay [6] is 3 nM.

B7: 13G10 (VHH)
VHH: EVQLVESGGGLVQAGGSLRLSCAASGLTFSSYTMAWYRQAPGKEREVVAAISSGDSIYHEDSVQGRFIISRDNAKNTVYLQMNSLKAEDTAVYYCRANGPGTYWGQGTQVTVSS
Take B7: in assay [6], the EC50 (read off the curve) came out at 2 nM.

B8: 13F11-13F11 conjugated to Alexa Fluor 647 (VHH, part only; not given: C-terminal cysteine and His tag, not shown: small tags and cut ends)
chain, part: EVQLVESGGRLVQPGDSLRLSCAASGRTFSDNAMGWFRQAPGKERRFVAGISWAGGSTYYSDSVKGRFTISRDNAKNTVYLQMNSLKPEDTAVYYCAAGLRAWVQRMPKDYNYWGQGTQVTVSSGGGGSGGGGSGGGGSEVQLVESGGRLVQPGDSLRLSCAASGRTFSDNAMGWFRQAPGKERRFVAGISWAGGSTYYSDSVKGRFTISRDNAKNTVYLQMNSLKPEDTAVYYCAAGLRAWVQRMPKDYNYWGQGTQVTVSS
modifications: Alexa Fluor 647 by maleimide chemistry on the C-terminal free cysteine
For the molecule B8, the Bmax in assay [3] was 63.4. The Kd in assay [4] worked out at 3.1 nM.

B9: 13E8 (VHH)
VHH: EVQLVESGGGLVQAGGSLRLSCAASRSISPMGWYRQAPGKQRELVAIMPSSGPPIYADSVQGRFTISRDNAKNTVYLQMNSLKPEDTAVYYCNVGGGYWGQGTQVTVSS
With B9, the decrease of the fluorescence intensity of labelled 13F11 in assay [8] was under 5%.
